{"source": "paper PMC7256200", "about": "“Identifying a Molecular Mechanism That Imparts Species-Specific Toxicity to YoeB Toxins” (Frontiers in Microbiology, 2020)", "proteins": {"B1": {"name": "AtYoeB toxin (Atu2017) from Agrobacterium tumefaciens, GST-His tag removed (natural protein)", "chain": "MKLVWTLSSWDDYEFWQRTDARMVEKINDLIRNAKRTPFAGLGKPEPLKGDMAGYWSRRITAEHRFVYRVSGSGSEQRLEVIQCRFHYQ", "notes": "source: E. coli BL21 (DE3), purified (NiNTA, HRV3c PreScission cleavage, Superdex 75); not shown: GST, C-terminal, cleaved"}}, "target": "the molecule itself", "assay": "SEC-MALS"}
{"protein": "B1", "values": [{"measurement": "stoichiometry N", "result": 2}]}
